Assay results from patent US20040235117A1.
Several values for one entry are separate records, joined by “and”; a condition that tells them apart may be missing. Equal values may be shown once. Blank lines part the entries; values can stand above or below the molecule they belong to.

Assays:
[1] = target: Flag-CD40L (AA 116 to 261) (human) (UniProt P29965); assay: competitive ELISA, CD40:Fc coated on the plate, sCD40L at constant concentration
[2] = target: Flag-CD40L (AA 116 to 261) (human) (UniProt P29965); assay: competitive ELISA, CD40:Fc coated on the plate, sCD40L at constant concentration, protein A 1 ug/ml
[3] = target: fusion protein (1), FasL trimer (flag sequence, linker, hFasL AA 139 to 281) (human) (UniProt P48023); assay: cell-based or functional assay
[4] = target: TRAIL trimer (flag sequence, linker, hTRAIL AA 95 to 281) (human) (UniProt P50591); assay: BIAcore, 7 ul of 2.5 ug/ml Flag-TRAIL over immobilised M2 antibody
[5] = target: fusion protein (1), FasL trimer (flag sequence, linker, hFasL AA 139 to 281) (human) (UniProt P48023); assay: BIAcore, 7 ul of 2.5 ug/ml Flag-FasL over immobilised M2 antibody
[6] = target: fusion protein (5), TRAIL-ACRP30 (murine; human) (UniProt Q60994); assay: cell-based or functional assay
[7] = target: fusion protein (3), super FasL (human) (UniProt P48023); assay: cell-based or functional assay
[8] = target: TNF receptor 2 (TNF-R2) on CT6 cells (mouse (on CT6 cells of mice)) (UniProt P25119); assay: cell-based or functional assay
[9] = target: fusion protein (1), FasL trimer (flag sequence, linker, hFasL AA 139 to 281) (human) (UniProt P48023); assay: BIAcore, Flag-FasL captured on an M2-modified CM5 chip, receptor fusion protein injected
[10] = target: fusion protein (1), FasL trimer (flag sequence, linker, hFasL AA 139 to 281) (human) (UniProt P48023); assay: cell-based or functional assay; remark: listed apart in the source
[11] = target: fusion protein (1), FasL trimer (flag sequence, linker, hFasL AA 139 to 281) (human) (UniProt P48023); assay: BIAcore, Flag-FasL captured on an M2-modified CM5 chip; reference Fas:Fc

UniProt P29965, sequence (P29965 other isoform, or with tags, fused parts or gaps limits assumed): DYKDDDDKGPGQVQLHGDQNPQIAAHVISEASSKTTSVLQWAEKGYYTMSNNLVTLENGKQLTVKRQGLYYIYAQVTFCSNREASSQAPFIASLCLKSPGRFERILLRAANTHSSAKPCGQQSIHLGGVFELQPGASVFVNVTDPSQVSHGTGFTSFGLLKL
UniProt P50591, sequence (P50591 other isoform, or with tags, fused parts or gaps limits assumed): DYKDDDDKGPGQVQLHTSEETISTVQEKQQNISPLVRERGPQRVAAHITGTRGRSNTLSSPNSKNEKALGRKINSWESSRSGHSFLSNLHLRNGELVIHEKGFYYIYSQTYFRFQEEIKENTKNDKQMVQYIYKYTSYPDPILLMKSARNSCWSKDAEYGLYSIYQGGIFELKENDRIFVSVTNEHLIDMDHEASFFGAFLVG
UniProt P25119, sequence (P25119 23-474): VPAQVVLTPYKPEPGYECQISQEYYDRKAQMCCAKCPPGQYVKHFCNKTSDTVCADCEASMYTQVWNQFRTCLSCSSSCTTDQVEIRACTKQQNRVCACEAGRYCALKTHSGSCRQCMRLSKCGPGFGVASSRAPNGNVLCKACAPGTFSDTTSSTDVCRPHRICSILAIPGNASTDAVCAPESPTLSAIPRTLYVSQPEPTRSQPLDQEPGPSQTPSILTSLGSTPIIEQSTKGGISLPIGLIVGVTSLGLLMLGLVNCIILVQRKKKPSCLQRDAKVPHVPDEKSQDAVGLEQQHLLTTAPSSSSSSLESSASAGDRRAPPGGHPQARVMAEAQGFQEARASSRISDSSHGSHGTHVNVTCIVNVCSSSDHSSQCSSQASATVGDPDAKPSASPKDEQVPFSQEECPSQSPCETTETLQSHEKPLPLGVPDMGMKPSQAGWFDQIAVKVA
UniProt Q60994, sequence (Q60994 other isoform, or with tags, fused parts or gaps limits assumed): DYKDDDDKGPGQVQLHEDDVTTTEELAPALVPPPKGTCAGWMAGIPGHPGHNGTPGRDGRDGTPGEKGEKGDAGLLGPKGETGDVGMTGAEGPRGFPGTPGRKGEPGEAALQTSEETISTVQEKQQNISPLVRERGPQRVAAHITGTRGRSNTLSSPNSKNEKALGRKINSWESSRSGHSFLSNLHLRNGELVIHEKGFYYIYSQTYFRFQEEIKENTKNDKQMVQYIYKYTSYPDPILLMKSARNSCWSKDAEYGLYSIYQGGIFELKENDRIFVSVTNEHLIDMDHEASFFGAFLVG

Molecule: CD40:COMP (receptor)
fold increase in the affinity (against CD40:Fc) [1]: 30 fold

Molecule: Fas:CMP (from UniProt P25445 1-170) (receptor)
inhibition of sFasL-mediated lysis, fold less effective than Fas:COMP [3]: 5 fold

Molecule: fusion protein (6), TNFα-ACRP30 (from UniProt Q60994 18-111; P06804 77-235) (ligand)
3[H]-thymidin incorporation into CT6 cells (cell proliferation) [8]: 5 ng/mL

Further lines, with some results ahead:

fold increase in the affinity (against CD40:Fc) [2]: 8 fold
Molecule: CD40:Fc/PA (from UniProt P25942 21-193) (Fc fusion)

units bound (BIAcore response) [4]: 100 to 150 units | units bound (BIAcore response) [5]: 100 to 150 units
Molecule: anti-flag M2 monoclonal antibody
cytotoxic assay on Jurkat cells, fold increase of apoptosis-inducing activity [6]: > 10 fold | cytotoxic assay on A20 and Jurkat cells, fold increase of apoptotic activity [7]: 2 fold and > 1.5 fold

Kd [9]: 0.77 nM | fold lower dissociation constant than Fas:Fc [11]: 8 to 9 fold
B1: Fas:COMP (receptor, not shown: small tags and cut ends)
chain: QVTDINSKGLELRKTVTTVETQNLEGLHHDGQFCHKPCPPGERKARDCTVNGDEPDCVPCQEGKEYTDKAHFSSKCRRCRLCDEGHGLEVEINCTRTQNTKCRCKPNFFCNSTVCEHCDPCTKCEHGIIKECTLTSNTKCKEEGSPQPQPKPQPKPEPEGGCCQMLRELQETNAALQDVRELLRHRVKEITFLKNTVMECDACGMQPARTPGGGS
modifications: Assembles as a disulphide-linked pentamer through the COMP coiled coil (about 400 kDa by gel filtration). N-glycosylated.
inhibitory activity in cytotoxicity tests on cell lines, fold over Fas:Fc [10]: 10 to 20 fold
